Results published in patent US20240254196A1.

Assays:
human IL-1α (human) [1] = molecular target: human IL-1α (human) (UniProt P01583); test: cell-based or functional assay
human IL-1β (human) [2] = molecular target: human IL-1β (human) (UniProt P01584); test: cell-based or functional assay
human IL-1α (human) [3] = molecular target: human IL-1α (human) (UniProt P01583); test: SPR, Biacore T200; binder captured by anti-human Fc, cytokine injected; 1:1 Langmuir
human IL-1β (human) [4] = molecular target: human IL-1β (human) (UniProt P01584); test: as above
mouse IL-1α (mouse) = mouse IL-1α (mouse) (UniProt P01582); test: as above
Chain of mouse IL-1α (mouse) (P01582 115-270 limits assumed): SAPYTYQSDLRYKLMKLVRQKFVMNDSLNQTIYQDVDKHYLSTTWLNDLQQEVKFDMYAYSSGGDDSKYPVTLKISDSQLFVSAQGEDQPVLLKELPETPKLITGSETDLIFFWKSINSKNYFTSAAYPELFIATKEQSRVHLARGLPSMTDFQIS

mouse IL-1β (mouse) = mouse IL-1β (mouse) (UniProt P10749); test: as above
Chain of mouse IL-1β (mouse) (P10749 118-269 limits assumed): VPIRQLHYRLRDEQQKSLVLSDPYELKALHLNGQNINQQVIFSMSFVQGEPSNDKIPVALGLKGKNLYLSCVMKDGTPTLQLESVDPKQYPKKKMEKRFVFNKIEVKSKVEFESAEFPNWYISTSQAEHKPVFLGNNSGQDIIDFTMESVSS

[5] = molecular target: rhesus monkey (Rhesus macaque) IL-1β (rhesus monkey (Rhesus macaque)) (UniProt P48090); test: as above
human FcγRI (human) [6] = molecular target: human FcγRI (human) (UniProt P12314); test: BLI, Octet Red96e; His-tagged FcγRI on anti-Penta-HIS sensor, 80-1,280 nM analyte; 1:1 model
Chain of human FcγRI (human) (P12314 16-288 limits assumed): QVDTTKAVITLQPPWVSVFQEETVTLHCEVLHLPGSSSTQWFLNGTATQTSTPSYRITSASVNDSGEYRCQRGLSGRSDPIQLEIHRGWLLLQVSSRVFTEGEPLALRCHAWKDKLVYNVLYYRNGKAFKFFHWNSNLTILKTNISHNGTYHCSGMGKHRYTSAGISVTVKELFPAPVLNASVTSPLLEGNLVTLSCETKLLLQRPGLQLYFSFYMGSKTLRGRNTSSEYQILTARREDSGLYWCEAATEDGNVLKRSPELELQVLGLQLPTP

human IL-1β (human) [7] = molecular target: human IL-1β (human) (UniProt P01584); test: ELISA, human IL-1β coated at 30 ng/well, detection with anti-human IgG Fc-HRP, OD 450 nm
human FcγRIIIA (human) [8] = molecular target: human FcγRIIIA (human) (UniProt P08637); test: BLI, Octet Red96e; His-tagged FcγRIIIA on anti-Penta-HIS sensor, 80-1,280 nM analyte; 1:1 model
Chain of human FcγRIIIA (human) (P08637 17-208 limits assumed): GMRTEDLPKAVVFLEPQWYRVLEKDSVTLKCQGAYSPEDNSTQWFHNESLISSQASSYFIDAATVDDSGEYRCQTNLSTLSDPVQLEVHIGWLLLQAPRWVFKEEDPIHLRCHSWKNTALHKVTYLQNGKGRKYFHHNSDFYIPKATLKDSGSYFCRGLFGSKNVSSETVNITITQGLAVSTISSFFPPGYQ

human FcγRIIIA (human) [9] = molecular target: human FcγRIIIA (human) (UniProt P08637); test: BLI (Octet Red96e), His-tagged human FcγRIIIA on Anti-Penta-HIS biosensor, analyte 80-1280 nM, 1:1 model [B]
[10] = molecular target: Human FcRn (Homo sapiens) (UniProt P55899); test: BLI (Octet Red96e), His-tagged human FcRn on Anti-Penta-HIS biosensor, pH 6.0, analyte 31.25-1000 nM, 1:1 model [A]
human FcγRI (human) [11] = molecular target: human FcγRI (human) (UniProt P12314); test: BLI (Octet Red96e), His-tagged human FcγRI on Anti-Penta-HIS biosensor, analyte 10-160 nM as printed on the sheet, 1:1 model [B]

Chain of human IL-1α (human) (P01583 113-271 limits assumed): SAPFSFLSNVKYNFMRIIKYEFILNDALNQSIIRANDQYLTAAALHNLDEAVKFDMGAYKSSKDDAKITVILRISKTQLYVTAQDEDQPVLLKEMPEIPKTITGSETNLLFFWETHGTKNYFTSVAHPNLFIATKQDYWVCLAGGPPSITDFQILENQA

- SEAP secretion, IL-1β reporter HEK 293 cell line, 10 ng/ml human IL-1α (human IL-1α (human) [1]): 0.308 nM
- EC50 of in vivo neutralisation: inhibition of the rise of serum IL-6 in C57BL/6 mice given human IL-1β (300 ng/kg i.p.) 24 h after s.c. rilonacept (human IL-1β (human) [2]): 10.5 µg/kg
- IL-1β-mediated IL-6 secretion, A549 cell line, 1 ng/ml IL-1β (human IL-1β (human) [2]): 37 pM
- SEAP secretion, IL-1β reporter HEK 293 cell line, 10 ng/ml human IL-1β (human IL-1β (human) [2]): 0.243 nM
- inhibition of SEAP secretion at 4 nM, IL-1β reporter HEK 293 cell line (human IL-1β (human) [2]): 99.5%
- inhibitory activity (%) on the IL-1β-induced rise of serum IL-6 in mice, at a 3-fold molar excess over the administered IL-1β (human IL-1β (human) [2]): 50%
- Kd (human IL-1α (human) [3]): 0.00491 nM
- koff (human IL-1α (human) [3]): 4.5e-05 s⁻¹
- kon (human IL-1α (human) [3]): 9.18e+06 M⁻¹ s⁻¹
- Kd (human IL-1β (human) [4]): 0.00256 nM
- koff (human IL-1β (human) [4]): 8.67e-05 s⁻¹
- kon (human IL-1β (human) [4]): 3.39e+07 M⁻¹ s⁻¹
- Kd (mouse IL-1α (mouse)): 0.0383 nM
- koff (mouse IL-1α (mouse)): 0.000178 s⁻¹
- kon (mouse IL-1α (mouse)): 4.66e+06 M⁻¹ s⁻¹
- Kd (mouse IL-1β (mouse)): 0.369 nM
- koff (mouse IL-1β (mouse)): 0.000328 s⁻¹
- kon (mouse IL-1β (mouse)): 890000 M⁻¹ s⁻¹
- Kd [5]: 0.00178 nM
- koff [5]: 2.43e-05 s⁻¹
- kon [5]: 1.36e+07 M⁻¹ s⁻¹
- Kd (human FcγRI (human) [6]): 45.8 nM
- EC50 (human IL-1β (human) [7]): 0.0947 nM
- Kd (human FcγRIIIA (human) [8]): 913 nM
- koff (human FcγRIIIA (human) [9]): 0.0538 s⁻¹
- kon (human FcγRIIIA (human) [9]): 59000 M⁻¹ s⁻¹
- Kd [10]: 453 nM
- koff [10]: 0.0489 s⁻¹
- kon [10]: 108000 M⁻¹ s⁻¹
- koff (human FcγRI (human) [11]): 0.00209 s⁻¹
- kon (human FcγRI (human) [11]): 45600 M⁻¹ s⁻¹
Substance: rilonacept (Fc fusion)
